Experimental findings from the supplement of paper PMC10567573 are described below.

A short description of the data set: protein stability index of a GFP-peptide fusion (GPS, HEK-293T) (PSI 1-6); higher = more stable.
The mark [1] stands for this setting: treatment: DMSO, c terminus: a fixed tail appended.
The mark [2] stands for this setting: treatment: MLN4924 1 uM, 8 h, c terminus: a fixed tail appended.

± gives the standard deviation.
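Further: 24-mer peptide tiles fused after GFP, lentivirally expressed, FACS-sorted into six equal bins by GFP/DsRed ratio, decoded by Illumina sequencing, PSI is the read-weighted mean bin number.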

With QVITQTGVPGQPLNFKAEPESETS [PTPRD], the protein stability index is, setting by setting: under setting [1], 5.18 ± 0.24; under setting [2], 5.31 ± 0.25.
The matching figures for QVRIRYLGERRAEPHSLLHLSRLC [SPSB2]: 2.34 ± 0.2 and 2.22 ± 0.22.
For QVVTVHLQTSLENGTRVQEEPELV [FKBP8] the same measures were 4.18 ± 0.15 and 4.37 ± 0.31.
The matching figures for QWGTVCDDDFSIHAAHVVCRELGY [LOXL2]: 2.47 ± 0.36 and 2.38 ± 0.39.
Take QYSVEGGKETLTPSELRDLVTQQL [S100A14]: the protein stability index runs as follows: under setting [1], 4.59 ± 0.23; under setting [2], 4.55 ± 0.13.
The matching figures for QYVYIAVMDYLPISSTSTKRTYWP [PLD5]: 3.01 ± 0.59 and 2.74 ± 0.29.
The matching figures for QYWLDGKIIAVGVIDILPNCVSSV [ATE1]: 2.93 ± 0.54 and 2.95 ± 0.66.
For QYYRWLNYGGVIKNYFQHREFSFT [PRIM1] the same measures were 2.34 ± 0.64 and 1.98 ± 0.47.
In the case of RAEIENLHRTFDPHFLRVPCWKIT [MOG], the protein stability index reads like this: under setting [1], 2.27 ± 0.22; under setting [2], 2.42 ± 0.22.
The sequence RAFAQIGPARSGFRLETLAGLRSR [MIR22HG] had a protein stability index under setting [1] of 3.23 ± 0.53 and a protein stability index under setting [2] of 3.2 ± 0.3.
In turn, RALATSNARAQQRAAAQQRRSFLN [GNAS] registered a protein stability index under setting [1] of 4.02 ± 0.15 and a protein stability index under setting [2] of 4.3 ± 0.13.
For RALRKMVSNMSGPSGEEEAKVGPG [CBY2] the same measures were 4.82 ± 0.23 and 4.87 ± 0.25.
Take RAPAEKPRGARCSNGFPERDPPRP [GCH1]: the protein stability index runs as follows: under setting [1], 4.2 ± 0.3; under setting [2], 4.43 ± 0.17.
The matching figures for RDANGWTLLHFSAARGKERCVRVF [ASB7]: 2.29 ± 0.29 and 2.43 ± 0.43.
The matching figures for RDILVEADGAWVVKMFYSFQDKRN [STK38L]: 2.07 ± 0.29 and 2.3 ± 0.4.
For RDRNLLQEDKALWEEEKALWVEER [CCDC70] the same measures were 5.007 ± 0.024 and 5.04 ± 0.28.
In the case of RDSTARRPRPQGRSVSEPRDQHPQ [RTN2], the protein stability index was 5.305 ± 0.037 under setting [1] and 5.23 ± 0.098 under setting [2].
For the sequence RDYAPPSRGYAYRDNGHSNRDEHS [RBMY1A1], the protein stability index runs as follows: under setting [1], 4.59 ± 0.11; under setting [2], 4.57 ± 0.36.
As to REAFPSWSSRSPQERSRVLNQVAD [ALDH8A1], the protein stability index is, setting by setting: under setting [1], 4.2 ± 0.33; under setting [2], 4.233 ± 0.03.
The matching figures for REARKRALARKQAQEQLRPQTPEP [RSPH3]: 5.04 ± 0.28 and 5.12 ± 0.15.
For RETVLIETQLKACASFIRTRLLLQ [C8orf76] the same measures were 2.88 ± 0.57 and 2.9 ± 0.71.
The matching figures for REVALLRRLEAFEHPNVVRLMDVC [CDK4]: 2.52 ± 0.15 and 2.68 ± 0.2.
As for RFFGPNAEISQPPALSQLVNLYLG [TCF25], the protein stability index reads like this: under setting [1], 3.05 ± 0.19; under setting [2], 2.96 ± 0.36.
For RGSKMFKLRQMRVEKFIYENHPDV [MYOZ1] the same measures were 2.9 ± 0.37 and 2.52 ± 0.12.
For RGTGQLNRFVQLSGRPHLPGKKKI [KLHDC10] the same measures were 2.99 ± 0.2 and 3.03 ± 0.26.
For RHYAYLRDSLSHLVPALRLPGRKL [INTS4], the protein stability index was determined as 2.31 ± 0.16 under setting [1] and 2.49 ± 0.45 under setting [2].
The matching figures for RIAAVEALCMLAQSSPSFAEKCLD [INTS4]: 2.46 ± 0.49 and 2.2 ± 0.53.
The matching figures for RIFTFICKDSESNKHLCYVFDSEK [GULP1]: 2.06 ± 0.56 and 2.21 ± 0.31.
The matching figures for RKILVLDLDETLIHSHHDGVLRPT [CTDNEP1]: 2.46 ± 0.2 and 2.61 ± 0.17.
Consider RKKRLLDRKVLLKSDSPTGDVLLD [GOLPH3L], for which the protein stability index is 4.22 ± 0.14 under setting [1] and 4.14 ± 0.19 under setting [2].
The matching figures for RKLSPTEPKNYGSYSTQASAAAAT [SCAMP3]: 4.37 ± 0.17 and 4.38 ± 0.14.
With RKQILLRGKLKKTEEELRRIQTQK [ZC2HC1C], the protein stability index reads like this: under setting [1], 3.99 ± 0.24; under setting [2], 4.2 ± 0.26.
For RLEINVLKKIKEKDKENKFLCVLM [CLK3] the same measures were 2.57 ± 0.52 and 2.1 ± 0.082.
For the sequence RLKKEEEDRIVTQNRVFAYLCKRV [CEP70], the protein stability index under setting [1] is 2.55 ± 0.31 and the protein stability index under setting [2] was 2.86 ± 0.43.
For RLQVKEHQHEEIQNVRNHIHSCFS [ATL3] the same measures were 3.21 ± 0.17 and 3.23 ± 0.21.
For RMEGSQEVVNMAVIVPKEEGVISV [WDFY2] the same measures were 3.23 ± 0.36 and 3.45 ± 0.17.
Turning to RPGPQSVPLQLSAHWQCGATLTQV [FCHO1], the protein stability index reads like this: under setting [1], 2.21 ± 0.23; under setting [2], 2.43 ± 0.2.
With RPRYKADVPDLQSVCSCTCYRSQD [KCNK9], the protein stability index worked out at 3.34 ± 0.41 under setting [1] and 3.67 ± 0.23 under setting [2].
For RPSSILPPRRGVSGDRDENSFSLN [MAP2] the same measures were 4.67 ± 0.09 and 4.63 ± 0.12.
Turning to RQILHLITMMALKVLGELNILPNT [TENT5D], the protein stability index was 3.42 ± 0.64 under setting [1] and 2.81 ± 0.1 under setting [2].
The matching figures for RRLRDMVERPHSGLPGKVFACLSV [KCNG1]: 2.47 ± 0.49 and 2.4 ± 0.49.
As to RRWGKRKNKPKMNYEKLSRGLRYY [ETS1], the protein stability index is 2.44 ± 0.33 under setting [1] and 2.68 ± 0.38 under setting [2].
For RRWKLQVLDLRKNSHQDFWTVWSG [PRAME] the same measures were 2.46 ± 0.73 and 2.07 ± 0.44.
Take RSHPDNAIPIKSWFSDPSDTALLN [CTDNEP1]: the protein stability index was found to be 3.73 ± 0.18 under setting [1] and 3.87 ± 0.18 under setting [2].
Sequence RSSSCGDTELLGQATLPVGSPSRP [C2CD2L] showed a protein stability index under setting [1] of 5.04 ± 0.15 and a protein stability index under setting [2] of 5.04 ± 0.13.
Regarding RSVIEVPAVPEEILKRLLKEQHLW [DLC1], the protein stability index runs as follows: under setting [1], 2.48 ± 0.36; under setting [2], 2.69 ± 0.37.
For RSWAMLFASGGFQVKLYDIEQQQI [CRYL1], the protein stability index is, setting by setting: under setting [1], 2.16 ± 0.34; under setting [2], 2.28 ± 0.67.
For RTAMPYGGYEKASKRMTFQMPKFD [MYOZ1] the same measures were 2.76 ± 0.18 and 2.86 ± 0.23.
Turning to RTARALLDRDALKQSLVVAVQDHG [PCDHGA10], the protein stability index runs as follows: under setting [1], 3.72 ± 0.18; under setting [2], 3.87 ± 0.34.
Consider RTELLKDAIGEGKVTLRIRNVRFS [MOG], for which the protein stability index by setting is: under setting [1], 2.68 ± 0.4; under setting [2], 2.79 ± 0.42.
Consider RTHTGEKPYTCSVCGKSFSRTTCL [ZNF8], for which the protein stability index runs as follows: under setting [1], 2.92 ± 0.31; under setting [2], 3.35 ± 0.54.
The matching figures for RTISCHVQNGTYLQRVLQNCPWPM [EMID1]: 2.12 ± 0.22 and 2.02 ± 0.17.
For RVKFKSQQHRQGRSHHLEMVIQLL [PTGFR] the same measures were 2.44 ± 0.19 and 2.21 ± 0.17.
RVLKAYTLYRPEEGYCQAQAPIAA [TBC1D10A]: the protein stability index was 2.08 ± 0.29 under setting [1] and 2.16 ± 0.21 under setting [2].
On to RYSCESRIRSYLREVSSYPSTVGA [DFFB], for which the protein stability index is 2.6 ± 0.27 under setting [1] and 2.73 ± 0.46 under setting [2].
For RYSGKILKNNETLVQHGVKPQEIV [IQUB] the same measures were 3.42 ± 0.21 and 3.71 ± 0.53.
The matching figures for RYVSNWDFFIVGCEVIFCVFIFYY [PKD2L1]: 3.07 ± 0.34 and 2.89 ± 0.32.
For SAAYYLNDLDRIAQPNYIPTQQDV [GNAI1] the same measures were 3.7 ± 0.28 and 3.73 ± 0.24.
Turning to SACSFTNSDMQILTASGDGTCALW [GNB5], the protein stability index by setting is: under setting [1], 2.33 ± 0.27; under setting [2], 2.15 ± 0.22.
SAPYSAAFLELPHGSGGSGYPAAP [TBX6]: the protein stability index under setting [1] turned out to be 3.27 ± 0.15 and the protein stability index under setting [2] came out at 3.55 ± 0.27.
For SCLLLQLRREKPSEEMVKMVLSRP [INTS3] the same measures were 2.64 ± 0.67 and 2.42 ± 0.34.
For SDHEMREEEKLKAEEIRIKGKYNI [KCNK9] the same measures were 5.11 ± 0.21 and 5.22 ± 0.3.
For the sequence SDLLNDQDLLDVIRIKLDPCHPTV [EDARADD], the protein stability index by setting is: under setting [1], 2.67 ± 0.23; under setting [2], 2.78 ± 0.21.
The matching figures for SEATLPAQMSTLHVSPPPSADPAR [PDLIM4]: 5.26 ± 0.17 and 5.17 ± 0.18.
The matching figures for SEDSFCRRHPGLGKAFPSGCSAVS [TRAF3IP2]: 3.66 ± 0.24 and 3.46 ± 0.33.
The matching figures for SEHFKTTSQKVARKFWWKNVKMIV [VAMP8]: 2.69 ± 0.24 and 2.61 ± 0.71.
In turn, SEKRRDPPNGPNLPMATVDIKNPE [WASL] came in with a protein stability index under setting [1] of 5.35 ± 0.11 and a protein stability index under setting [2] of 5.28 ± 0.17.
Turning to SFGNCTYNLTILDCLQGIRKGLQH [CDC14A], the protein stability index under setting [1] stood at 2.38 ± 0.36 and the protein stability index under setting [2] is 2.33 ± 0.44.
Turning to SFSTGAGGWSNHHFCVILLGFLP [BET1L], the protein stability index by setting is: (treatment: DMSO, c terminus: native) 2.99 ± 0.39; (treatment: MLN4924 1 uM, 8 h, c terminus: native) 2.99 ± 0.53.
For the sequence SGRRGPPPPPRSRGPPRGLRGGRG [RBMX], the protein stability index runs as follows: under setting [1], 4.87 ± 0.25; under setting [2], 5.14 ± 0.3.
Turning to SHPRVQSGCDKEALLTGGGSENRN [RNF180], the protein stability index runs as follows: under setting [1], 4.77 ± 0.31; under setting [2], 4.65 ± 0.24.
The matching figures for SISEEGFHYLVFDLVTGGELFEDI [CAMK2B]: 2.32 ± 0.42 and 2.24 ± 0.4.
